Paper PMC10372695 (Proceedings of the National Academy of Sciences of the …, 2023)
“And” between values parts separate entries of the source, which are not always exact repeats. Equal values may be shown once. Read-outs that look alike come from different tables or passages of the source.

Assays:
[1] = molecular target: the molecule itself; assay: single-molecule fluorescence microscopy with optical tweezers
[2] = molecular target: the molecule itself; assay: as above; remark: listed apart in the source

B1: C-terminal GFP-tagged SV40 LT (natural protein)
chain: MDKVLNREESLQLMDLLGLERSAWGNIPLMRKAYLKKCKEFHPDKGGDEEKMKKMNTLYKKMEDGVKYAHQPDFGGFWDATEIPTYGTDEWEQWWNAFNEENLFCSEEMPSSDDEATADSQHSTPPKKKRKVEDPKDFPSELLSFLSHAVFSNRTLACFAIYTTKEKAALLYKKIMEKYSVTFISRHNSYNHNILFFLTPHRHRVSAINNYAQKLCTFSFLICKGVNKEYLMYSALTRDPFSVIEESLPGGLKEHDFNPEEAEETKQVSWKLVTEYAMETKCDDVLLLLGMYLEFQYSFEMCLKCIKKEQPSHYKYHEKHYANAAIFADSKNQKTICQQAVDTVLAKKRVDSLQLTREQMLTNRFNDLLDRMDIMFGSTGSADIEEWMAGVAWLHCLLPKMDSVVYDFLKCMVYNIPKKRYWLFKGPIDSGKTTLAAALLELCGGKALNVNLPLDRLNFELGVAIDQFLVVFEDVKGTGGESRDLPSGQGINNLDNLRDYLDGSVKVNLEKKHLNKRTQIFPPGIVTMNEYSVPKTLQARFVKQIDFRPKDYLKHCLERSEFLLEKRIIQSGIALLLMLIWYRPVAEFAQSIQSRIVEWKERLDKEFSLSVYQKMKFNVAMGIGVLDWLRNSDDDDEDSQENADKNEDGGEKNMEDSGHETGIDSQSQGSFQAPQSSQSVHDHNQPYHICRGFTCFKKPPTPPPEPET
[1]
  stoichiometry N: 3 and 4 and 5
[2]
  stoichiometry N: 6 and 12
